In PMC7954794, “Protein context shapes the specificity of SH3 domain-mediated interactions in vivo” (Nature Communications, 2021):

Tested on: growth of yeast strains under 51 stress conditions
Assay: Growth assays in 51 stress conditions (Fig. 1E-F, S2D, S5B)
Type: cell-based, Saccharomyces cerevisiae
Set-up: key to Growth (Fig. S2D) / growth of ABP1 SH3-swapped strains in stress condition: log2 colony size, average of median per strain (growth score)
Details: FigS2D
Method in brief: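 Yeast WT, SH3-deleted, KO, SH3-swapped and SH3-shuffled strains pinned in 1536 format, 12 replicates each; pregrown on YPD 2 days at 30 °C, then replicated onto 51 media at 37 °C and imaged every 2 h. Growth score = mean of per-plate median log2 colony size at 74 h.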

B1: SHO1 (protein, UniProt P40073 1-367, looked up)
High osmolarity signaling …: MSISSKIRPTPRKPSRMATDHSFKMKKFYADPFAISSISLAIVSWVIAIGGSISSASTNESFPRFTWWGIVYQFLIICSLMLFYCFDLVDHYRIFITTSIAVAFVYNTNSATNLVYADGPKKAAASAGVILLSIINLIWILYYGGDNASPTNRWIDSFSIKGIRPSPLENSLHRARRRGNRNTTPYQNNVYNDAIRDSGYATQFDGYPQQQPSHTNYVSSTALAGFENTQPNTSEAVNLHLNTLQQRINSASNAKETNDNSNNQTNTNIGNTFDTDFSNGNTETTMGDTLGLYSDIGDDNFIYKAKALYPYDADDDDAYEISFEQNEILQVSDIEGRWWKARRANGETGIIPSNYVQLIDGPEEMHR
Bathophenanthroline.0.1uM
  growth of ABP1 SH3-swapped strains in stress condition: 10.8666
Bathophenanthroline.10uM
  growth of ABP1 SH3-swapped strains in stress condition: 10.6802
Bathophenanthroline.1uM
  growth of ABP1 SH3-swapped strains in stress condition: 10.8165
CaCl2.100mM
  growth of ABP1 SH3-swapped strains in stress condition: 10.8196
CaCl2.250mM
  growth of ABP1 SH3-swapped strains in stress condition: 10.7666
CaCl2.500mM
  growth of ABP1 SH3-swapped strains in stress condition: 10.33
Caffein.10mM
  growth of ABP1 SH3-swapped strains in stress condition: 9.975
Caffein.2mM
  growth of ABP1 SH3-swapped strains in stress condition: 10.938
CdCl2.100uM
  growth of ABP1 SH3-swapped strains in stress condition: 9.34
CdCl2.10uM
  growth of ABP1 SH3-swapped strains in stress condition: 10.884
CdCl2.50uM
  growth of ABP1 SH3-swapped strains in stress condition: 9.827
CuSO4.1mM
  growth of ABP1 SH3-swapped strains in stress condition: 10.4931
CuSO4.5mM
  growth of ABP1 SH3-swapped strains in stress condition: 7.806
Cycloheximide.0.05.uM
  growth of ABP1 SH3-swapped strains in stress condition: 11.0905
Cycloheximide.0.2.uM
  growth of ABP1 SH3-swapped strains in stress condition: 10.7035
Cycloheximide.0.5.uM
  growth of ABP1 SH3-swapped strains in stress condition: 10.0394
DMSO.2.
  growth of ABP1 SH3-swapped strains in stress condition: 11.0205
DMSO.6.
  growth of ABP1 SH3-swapped strains in stress condition: 9.808
DMSO.8.
  growth of ABP1 SH3-swapped strains in stress condition: 8.962
Ethanol.2.
  growth of ABP1 SH3-swapped strains in stress condition: 10.7684
Ethanol.6.
  growth of ABP1 SH3-swapped strains in stress condition: 10.4049
Ethanol.8.
  growth of ABP1 SH3-swapped strains in stress condition: 10.2263
Galactose.2.
  growth of ABP1 SH3-swapped strains in stress condition: 10.8154
Glycerol.2.
  growth of ABP1 SH3-swapped strains in stress condition: 9.771
Hydroxyurea.25mM
  growth of ABP1 SH3-swapped strains in stress condition: 10.7838
Hygromycin.190uM
  growth of ABP1 SH3-swapped strains in stress condition: 10.9371
Hygromycin.19uM
  growth of ABP1 SH3-swapped strains in stress condition: 10.9563
Hygromycin.95uM
  growth of ABP1 SH3-swapped strains in stress condition: 10.9936
MMS.0.004.
  growth of ABP1 SH3-swapped strains in stress condition: 10.9851
MMS.0.02.
  growth of ABP1 SH3-swapped strains in stress condition: 10.7181
MMS.0.04.
  growth of ABP1 SH3-swapped strains in stress condition: 10.0309
Menadione.100uM
  growth of ABP1 SH3-swapped strains in stress condition: 10.5941
Menadione.200uM
  growth of ABP1 SH3-swapped strains in stress condition: 10.4073
Menadione.50uM
  growth of ABP1 SH3-swapped strains in stress condition: 10.7963
NaCl.0.25M
  growth of ABP1 SH3-swapped strains in stress condition: 10.8224
NaCl.1M
  growth of ABP1 SH3-swapped strains in stress condition: 9.702
Nitroquinoline.10uM
  growth of ABP1 SH3-swapped strains in stress condition: 10.7342
Nitroquinoline.50uM
  growth of ABP1 SH3-swapped strains in stress condition: 10.7229
Nystatin.0.01uM
  growth of ABP1 SH3-swapped strains in stress condition: 11.0733
Nystatin.0.1uM
  growth of ABP1 SH3-swapped strains in stress condition: 11.0089
Raffinose.2.
  growth of ABP1 SH3-swapped strains in stress condition: 11.0381
Rapamycin.10nM
  growth of ABP1 SH3-swapped strains in stress condition: 9.786
Rapamycin.50nM
  growth of ABP1 SH3-swapped strains in stress condition: 9.424
SC.pH3
  growth of ABP1 SH3-swapped strains in stress condition: 10.389
SC.pH6
  growth of ABP1 SH3-swapped strains in stress condition: 11.0143
SDS.0.01.
  growth of ABP1 SH3-swapped strains in stress condition: 10.9726
SDS.0.02.
  growth of ABP1 SH3-swapped strains in stress condition: 10.9605
SDS.0.05.
  growth of ABP1 SH3-swapped strains in stress condition: 10.8495
Sorbitol.10mM
  growth of ABP1 SH3-swapped strains in stress condition: 10.9902
Sorbitol.1mM
  growth of ABP1 SH3-swapped strains in stress condition: 11.0334
Sorbitol.5mM
  growth of ABP1 SH3-swapped strains in stress condition: 10.9353
